Experimental data: patent publication US20040115741A1

Molecular target: HM1.24 antigen (human) (UniProt Q10589)
Assay: flow cytometry on KPMM2 cells, control antibody

Sequence of UniProt Q10589 (Q10589 1-161 limits assumed): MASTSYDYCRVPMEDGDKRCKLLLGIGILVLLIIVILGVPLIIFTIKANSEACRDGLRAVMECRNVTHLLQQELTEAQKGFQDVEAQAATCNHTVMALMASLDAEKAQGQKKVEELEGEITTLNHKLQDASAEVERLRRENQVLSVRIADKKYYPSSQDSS

Geo Mean of fluorescence intensity: 17.3
Substance: control antibody human IgG1 (hIgG1), Human IgG1, Kappa (SIGMA Cat. No. I3889)
